Data set [1] concerns the molecule itself. In words: analytical equilibrium ultracentrifugation, self-association.
Description: The data were analyzed globally at 10K, 14K, and 20K rpm by nonlinear least-squares analysis using the ORIGIN software package supplied by Beckman. The goodness of fit was evaluated on the basis of the magnitude and randomness of the residuals, expressed as the difference between the experimental data and the theoretical curve and also by checking each of the fit parameters for physical reasonability.
The target in data set [2] is T1, DsRed fused downstream of the Gal4 DNA binding domain (pGBT9) (Discosoma sp.).
T1 construct: range 1-147; also called DsRed-prey
Description: yeast two hybrid, negative control. As for the experimental part: Yeast two hybrid assays were also performed. […] Alternatively, the yeast were grown on filters placed on plates lacking tryptophan and leucine to select for the bait and prey plasmids. After overnight growth, the filters were removed from the plates, frozen in liquid nitrogen, thawed, and incubated in X-gal overnight at 30° C. and two days at 4° C. to test for β-galactosidase activity (assayed by blue color development).

Data set [3] concerns the molecule itself. Description: SDS-PAGE without boiling, self-association.
Data set [4] deals with the molecule itself. In words: SDS-PAGE with and without boiling, intermolecular self-association.
Data set [5] deals with the molecule itself. In words: oligomeric state of the mutant, self-association.
Data set [6] deals with the molecule itself. Description: non-denaturing polyacrylamide gel electrophoresis, self-association. The method, then: The mutant proteins were prepared following standard methodology and analyzed with polyacrylamide gel electrophoresis as described (Baird et al., supra, 2000). […] This solution was centrifuged in a Beckman XL-1 analytical ultracentrifuge in PBS at 10,000 rpm, 12,000 rpm, 14,000 rpm, and 20,000 rpm.
No attempt was made to disrupt the A:B and C:D interfaces.

Data set [7] deals with the molecule itself. Description: fluorescence excitation spectra, FRET within the oligomer.
Description: Absorption/Fluorescence Spectra and Extinction Coefficients—Fluorescence spectra were taken with a Fluorolog spectrofluorimeter (Spex Industries, Edison, N.J.). Absorbance spectra of proteins were taken with a Cary ITV-V is spectrophotometer. […] Corrections were included in the quantum yield calculation for the refractive index difference between ethanol and water. For extinction coefficient determination, native protein absorbance was measured with the spectrophotometer, and protein concentration was measured by the BCA method (Pierce).
Data set [8] deals with the molecule itself. In words: analytical equilibrium centrifugation; model in which the tetramer dimerizes into an octamer.
Description: The data were analyzed globally at 10,000, 14,000, and 20,000 rpm by nonlinear least-squares analysis using the Origin software package (Beckman). The goodness of fit was evaluated on the basis of the magnitude and randomness of the residuals, expressed as the difference between the experimental data and the theoretical curve and also by checking each of the fit parameters for physical reasonability.

Changes are numbered by the printed parent chain. Names may count otherwise.

B1: dimer2 (Discosoma variant red fluorescent protein) (other)
chain: MRGSHHHHHHGMASMTGGQQMGRDLYDDDDKDPMVASSEDVIKEFMRFKVRMEGSVNGHEFEIEGEGEGRPYEGTQTAKLKVTKGGPLPFAWDILSPQFQYGSKAYVKHPADIPDYKKLSFPEGFKWERVMNFEDGGVVTVTQDSSLQDGTLIYKVKFRGTNFPPDGPVMQKKTMGWEASTERLYPRDGVLKGEIHQALKLKDGGHYLVEFKTIYMAKKPVQLPGYYYVDTKLDITSHNEDYTIVEQYERSEGRHHLFL
notes: Protomer; forms an AC dimer
In the case of B1, the binding result in data set [1] is given as “binds”.

B2: Gal4 activation domain alone (pGAD GH without DsRed) (other, UniProt P04386 768-881, looked up)
chain: ANFNQSGNIADSSLSFTFTNSSNGPNLITTQTNSQALSQPIASSNVHDNFMNNEITASKIDDGNNSKPLSPGWTDQTAYNAFGITTGMFNTTTMDDVYNYLFDDEDTPPNPKKE
notes: range 768-881; Negative control of the two hybrid assay
For the molecule B2, the binding result in data set [2] is on record as “no binding”.

B3: tandem DsRed (tDsRed) (other)
chain: MRGSHHHHHHGMASMTGGQQMGRDLYDDDDKDPMRSSKNVIKEFMRFKVRMEGTVNGHEFEIEGEGEGRPYEGHNTVKLKVTKGGPLPFAWDILSPQFQYGSKVYVKHPADIPDYKKLSFPEGFKWERVMNFEDGGVVTVTQDSSLQDGCFIYKVKFIGVNFPSDGPVMQKKTMGWEASTERLYPRDGVLKGEIHKALKLKDGGHYLVEFKSIYMAKKPVQLPGYYYVDSKLDITSHNEDYTIVEQYERTEGRHHLFLGSTSGSGKPGSGEGSTKGMRSSKNVIKEFMRFKVRMEGTVNGHEFEIEGEGEGRPYEGHNTVKLKVTKGGPLPFAWDILSPQFQYGSKVYVKHPADIPDYKKLSFPEGFKWERVMNFEDGGVVTVTQDSSLQDGCFIYKVKFIGVNFPSDGPVMQKKTMGWEASTERLYPRDGVLKGEIHKALKLKDGGHYLVEFKSIYMAKKPVQLPGYYYVDSKLDITSHNEDYTIVEQYERTEGRHHLFL
In the case of B3, the binding result in data set [3] was “binds”.

B4: tandem DsRed-I125R (tDsRed-I125R) (other)
chain: B3 chain with I158R, I401R
Regarding B4, in data set [4], the binding result is recorded as “no binding”.

B5: DsRed-I125R (other)
chain: MRGSHHHHHHGMASMTGGQQMGRDLYDDDDKDPMRSSKNVIKEFMRFKVRMEGTVNGHEFEIEGEGEGRPYEGHNTVKLKVTKGGPLPFAWDILSPQFQYGSKVYVKHPADIPDYKKLSFPEGFKWERVMNFEDGGVVTVTQDSSLQDGCFIYKVKFRGVNFPSDGPVMQKKTMGWEASTERLYPRDGVLKGEIHKALKLKDGGHYLVEFKSIYMAKKPVQLPGYYYVDSKLDITSHNEDYTIVEQYERTEGRHHLFL
notes: Protomer
For B5, in data set [5], the binding result is recorded as “binds”.

B6: T1 DsRed-I125R (other)
chain: B5 chain with R35A, K38E, N39D, T54S, H74T, N75Q, V77A, C150S, T250A
notes: Protomer; forms a dimer; also called T1-I125R
As to B6, the binding result in data set [5] is on record as “binds”.

B7: DsRed I125K (other)
chain: B5 chain with R158K
notes: Protomer; mixture of dimer and tetramer
With B7, the binding result in data set [6] was “binds”.

B8: T1 (Discosoma sp. variant fast T1 red fluorescent protein) (other)
chain: B5 chain with R35A, K38E, N39D, T54S, H74T, N75Q, V77A, C150S, R158I, T250A
notes: Protomer of a tetramer; also called fast tetramer T1; DsRed-Express
In the case of B8, the binding result in data set [7] was “binds”.

B9: DsRed obligate tetramer (polyHis-tagged) (other)
chain: B5 chain with R158I
notes: The tetramer as a unit, for the fitted tetramer-to-octamer dissociation constant; also called tetramer of polyHis-tagged DsRed
As for B9, binding in data set [8] was put at a Kd of 39 µM.

These data come from patent US20100227400A1 (published 2010).
